Common to all, as to assay: SEC; size-exclusion chromatography of the tag-free proteins after cleavage of the MBP fusion proteins with factor Xa; self-association (oligomeric state); SEC data not shown
Background: In gel filtration, larger molecules generally elute earlier.

In assay [1] the target is Y138A full-length human phenylalanine hydroxylase (human) (UniProt P00439).
Assay [2] has as its target Y138E full-length human phenylalanine hydroxylase (human) (UniProt P00439).
Assay [3] addresses Y138F full-length human phenylalanine hydroxylase (human) (UniProt P00439).
The target of assay [4] is Y138K full-length human phenylalanine hydroxylase (human) (UniProt P00439).
Assay [5] deals with double truncated form ΔN102/ΔC24-hPAH (catalytic domain of human phenylalanine hydroxylase) (human) (UniProt P00439).
The target in assay [6] is wild-type human phenylalanine hydroxylase, full-length (wt-hPAH) (human) (UniProt P00439).
The target of assay [7] is ΔN102/ΔC24-Y138A human phenylalanine hydroxylase catalytic domain (human) (UniProt P00439).
Assay [8] deals with ΔN102/ΔC24-Y138E human phenylalanine hydroxylase catalytic domain (human) (UniProt P00439).
For assay [9], the target named is ΔN102/ΔC24-Y138F human phenylalanine hydroxylase catalytic domain (human) (UniProt P00439).
In assay [10] the target is ΔN102/ΔC24-Y138K human phenylalanine hydroxylase catalytic domain (human) (UniProt P00439).

For ten substances, stoichiometry N results are on record in paper PMC5494296.

“And” between values parts separate entries of the source, which are not always exact repeats. Equal values may be shown once.

One may read the stoichiometry N as the number of molecules, sites or subunits per partner or assembly.

As to “Y138A full-length human phenylalanine hydroxylase (from UniProt P00439 1-452) (enzyme)”, the stoichiometry N in assay [1] was 4 and 2.

As for “Y138E full-length human phenylalanine hydroxylase (from UniProt P00439 1-452) (enzyme)”, in assay [2], the stoichiometry N is 4 and 2. Consider “Y138F full-length human phenylalanine hydroxylase (from UniProt P00439 1-452) (enzyme)”, for which the stoichiometry N in assay [3] was 4 and 2. In the case of “Y138K full-length human phenylalanine hydroxylase (from UniProt P00439 1-452) (enzyme)”, the stoichiometry N in [4] was 2 and 4. Turning to “double truncated form ΔN102/ΔC24-hPAH (catalytic domain of human phenylalanine hydroxylase) (from UniProt P00439 103-428) (domain or fragment)”, the stoichiometry N in assay [5] turned out to be 2. For “wild-type human phenylalanine hydroxylase, full-length (wt-hPAH) (from UniProt P00439 1-452) (enzyme)”, the stoichiometry N in assay [6] was 4 and 2. In [7], “ΔN102/ΔC24-Y138A human phenylalanine hydroxylase catalytic domain (from UniProt P00439 103-428) (domain or fragment)” displayed a stoichiometry N of 2.

As to “ΔN102/ΔC24-Y138E human phenylalanine hydroxylase catalytic domain (from UniProt P00439 103-428) (domain or fragment)”, the stoichiometry N in assay [8] is 2. For the substance “ΔN102/ΔC24-Y138F human phenylalanine hydroxylase catalytic domain (from UniProt P00439 103-428) (domain or fragment)”, in assay [9], the stoichiometry N came to 2. In [10], “ΔN102/ΔC24-Y138K human phenylalanine hydroxylase catalytic domain (from UniProt P00439 103-428) (domain or fragment)” had a stoichiometry N of 2.
